From ChEMBL document CHEMBL2074010, “Transport function and hepatocellular localization of mrp6 in rat liver” (Mol Pharmacol, 2000)

B1: ATP-binding cassette sub-family C member 2 (Rattus norvegicus) (protein)
chain: MDKFCNSTFWDLSLLESPEADLPLCFEQTVLVWIPLGFLWLLAPWQLYSVYRSRTKRSSITKFYLAKQVFVVFLLILAAIDLSLALTEDTGQATVPPVRYTNPILYLCTWLLVLAVQHSRQWCVRKNSWFLSLFWILSVLCGVFQFQTLIRALLKDSKSNMAYSYLFFVSYGFQIVLLILTAFSGPSDSTQTPSVTASFLSSITFSWYDRTVLKGYKHPLTLEDVWDIDEGFKTRSVTSKFEAAMTKDLQKARQAFQRRLQKSQRKPEATLHGLNKKQSQSQDVLVLEEAKKKSEKTTKDYPKSWLIKSLFKTFHVVILKSFILKLIHDLLVFLNPQLLKLLIGFVKSSNSYVWFGYICAILMFAVTLIQSFCLQSYFQHCFVLGMCVRTTVMSSIYKKALTLSNLARKQYTIGETVNLMSVDSQKLMDATNYMQLVWSSVIQITLSIFFLWRELGPSILAGVGVMVLLIPVNGVLATKIRNIQVQNMKNKDKRLKIMNEILSGIKILKYFAWEPSFQEQVQGIRKKELKNLLRFGQLQSLLIFILQITPILVSVVTFSVYVLVDSANVLNAEKAFTSITLFNILRFPLSMLPMVTSSILQASVSVDRLERYLGGDDLDTSAIRRVSNFDKAVKFSEASFTWDPDLEATIQDVNLDIKPGQLVAVVGTVGSGKSSLVSAMLGEMENVHGHITIQGSTAYVPQQSWIQNGTIKDNILFGSEYNEKKYQQVLKACALLPDLEILPGGDMAEIGEKGINLSGGQKQRVSLARAAYQDADIYILDDPLSAVDAHVGKHIFNKVVGPNGLLAGKTRIFVTHGIHFLPQVDEIVVLGKGTILEKGSYRDLLDKKGVFARNWKTFMKHSGPEGEATVNNDSEAEDDDDGLIPTMEEIPEDAASLAMRRENSLRRTLSRSSRSSSRRGKSLKNSLKIKNVNVLKEKEKEVEGQKLIKKEFVETGKVKFSIYLKYLQAVGWWSILFIILFYGLNNVAFIGSNLWLSAWTSDSDNLNGTNNSSSHRDMRIGVFGALGLAQGICLLISTLWSIYACRNASKALHGQLLTNILRAPMRFFDTTPTGRIVNRFSGDISTVDDLLPQTLRSWMMCFFGIAGTLVMICMATPVFAIIIIPLSILYISVQVFYVATSRQLRRLDSVTKSPIYSHFSETVTGLPIIRAFEHQQRFLAWNEKQIDINQKCVFSWITSNRWLAIRLELVGNLVVFCSALLLVIYRKTLTGDVVGFVLSNALNITQTLNWLVRMTSEAETNIVAVERISEYINVENEAPWVTDKRPPADWPRHGEIQFNNYQVRYRPELDLVLKGITCNIKSGEKVGVVGRTGAGKSSLTNCLFRILESAGGQIIIDGIDVASIGLHDLRERLTIIPQDPILFSGSLRMNLDPFNKYSDEEVWRALELAHLRSFVSGLQLGLLSEVTEGGDNLSIGQRQLLCLGRAVLRKSKILVLDEATAAVDLETDSLIQTTIRKEFSQCTVITIAHRLHTIMDSDKIMVLDNGKIVEYGSPEELLSNRGSFYLMAKEAGIENVNHTEL
B2: ATP-binding cassette sub-family C member 6 (Rattus norvegicus) (protein)
chain: MNGEHSMATPGESCAGLRVWNQTEQEPVAYHLLNLCFLRAAGSWVPPMYLWVLGPIYLLYIHRHGCCYLRMSRLFKIKMVLGFALILLYTFNAAVPLWRIHRGMPQAPELLIHPTVWLTTMSFATFLIHMERKKGVRASGLLFGYWLLCCLVPAIDTVQQASAGSFRQEPLHHLATYLCLSLVVAELVLSCLVDQPPFFSEDSKPLNPCPEAEASFPSKAMFWWASGLLWKGYRKLLGPKDLWSLERENSSEELVSQLEREWRRNFSELPGHKGHSGMGTPETEAFLQPERSQRGPLLRAIWRVFRSTFLLGTLSLVISDAFRFAVPKLLSLFLEFMGDLESSAWTGWLLAVLMFLSACLQTLFEQQYMYRVKVLQMRLRTAITGLVYRKVLVLSSGSRKSSAAGDVVNLVSVDVQRLVESILHLNGLWLLFLWIIVCFVYLWQLLGPSALTAVAVFLSLLPLNFFITKKRSFHQEEQMRQKASRARLTSSMLRTVRTIKSHGWECAFLERLLHIRGQELGALKTSAFLFSVSLVSFQVSTFLVALVVFAVHTLVAEDNAMDAEKAFVTLTVLSILNKAQAFLPFSVHCLVQARVSFDRLAAFLCLEEVDPNGMVLSPSRCSSKDRISIHNGTFAWSQESPPCLHGINLTVPQGCLLAVVGPVGAGKSSLLSALLGELLKVEGSVSIEGSVAYVPQEAWVQNTSVVENVCFRQELDLPWLQEVLEACALGSDVASFPAGVHTPVGEQGMNLSGGQKQRLSLARAVYRRAAVYLMDDPLAALDAHVSQEVFKQVIGPSGLLQGTTRILVTHTLHVLPQADQILVLANGTIAEMGSYQDLLHRNGALVGLLDGARQPAGEGEGEAHAAATSDDLGGFSGGGTPTRRPERPRPSDAAPVKGSTSEAQMEPSLDDVEVTGLTAGEDSVQYGRVKSATYLSYLRAVGTPLCTYTLFLFLCQQVASFCQGYWLSLWADDPVVDGKQMHSALRGSIFGLLGCLQAIGLFASMAAVFLGGARASCLLFRSLLWDVARSPIGFFERTPVGNLLNRFSKETDIVDVDIPDKMRTLLTYAFGLLEVGLAVSMATPLAIVAILPLMLLYAGFQSLYVATCCQLRRLESASYSSVCSHLAETFQGSQVVRAFQAQGPFTAQHDALMDENQRISFPRLVADRWLAANLELLGNGLVFVAATCAVLSKAHLSAGLAGFSVSAALQVTQTLQWVVRSWTDLENSMVAVERVQDYVHTPKEAPWRLPSSAAQPLWPCGGQIEFRDFGLRHRPELPMAVQGVSLKIHAGEKVGIVGRTGAGKSSLTWGLLRLQEATEGGIWIDGVPITDMGLHTLRSRITIIPQDPVLFPGSLRMNLDLLQENTDEGIWAALETVQLKAFVTSLPGQLQYECSGQGDDLSVGQKQLLCLARALLRKTQILILDEATASVDPGTEIQMQAALERWFAQCTVLLIAHRLRSVMNCARVLVMDEGQVAESGSPAQLLAQKGLFYRLAQESGLA

Legend:
[1] = substrate: CC(C)C[C@@H]1NC(=O)[C@@H](C(C)C)NC(=O)[C@@H]2CCCN2C(=O)[C@@H](CC(=O)O)NC(=O)[C@@H](Cc2c[nH]c3ccccc23)NC1=O; assay: TP_TRANSPORTER: uptake in membrane vesicles from Mrp2-expressing Sf9 cells; format: functional, cell membranes, Membrane vesicle
[2] = substrate: CC(C)C[C@@H]1NC(=O)[C@@H](C(C)C)NC(=O)[C@@H]2CCCN2C(=O)[C@@H](CC(=O)O)NC(=O)[C@@H](Cc2c[nH]c3ccccc23)NC1=O; assay: TP_TRANSPORTER: uptake in membrane vesicle from Mrp6-expressing Sf9 cells; format: functional, cell membranes

Protein | Km [1] [µM] | Km [2] [µM]
B1 | 124 | 
B2 |  | 17
